The data set addresses T1, GdFen1 (Giardia duodenalis, UniProt A8B672 1-361).
T1 sequence: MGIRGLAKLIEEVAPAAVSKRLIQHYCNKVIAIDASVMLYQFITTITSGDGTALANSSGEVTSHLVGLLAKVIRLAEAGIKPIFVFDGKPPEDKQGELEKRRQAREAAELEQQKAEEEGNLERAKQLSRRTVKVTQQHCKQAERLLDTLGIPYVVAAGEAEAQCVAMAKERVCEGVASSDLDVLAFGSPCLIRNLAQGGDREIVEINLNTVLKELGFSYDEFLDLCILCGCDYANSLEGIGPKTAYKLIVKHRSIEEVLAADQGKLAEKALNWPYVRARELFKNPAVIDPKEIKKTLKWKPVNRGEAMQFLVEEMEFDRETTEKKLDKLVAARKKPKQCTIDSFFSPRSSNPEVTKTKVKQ
Description: EMSA.

B1: Flap probe (structured_DNA)
DNA 1: CGCGGATCCCACTACGCCGATTTTTTTTTTTTTTTTTTTTACGTATGCCACGAATTCGCG
DNA 2: CGCGAATTCGTGGCATACGTAAAAAAAAAAAAAAAAAAAAGAGATGCGAGTCTAGACCGG
DNA 3: CCGGTCTAGACTCGCATCTC
Turning to B1, the binding result is on record as “binds”.

B2: Bubble probe (structured_DNA)
DNA 1: B1 DNA 1
DNA 2: CGCGAATTCGTGGCATACGTTTTTTTTTTTTTTTTTTTTTTCGGCGTAGTGGGATCCGCG
Take B2: the binding result is given as “binds”.

(Values after doi:10.1101/2025.04.23.650334.)
